Broadly, the stoichiometry N is a count of units in the complex or per binding partner.

Experimental findings from PMC2197187 (Acta Crystallographica Section F: Structural Biology and …, 2006) are described below.

The data set “mass spectrometry” deals with the molecule itself. Put plainly: mass spectrometry.
The data set “SEC” deals with the molecule itself. Description: SEC. Background: In gel filtration, larger molecules generally elute earlier.

B1: Sso6206, recombinant, His tag cleaved by TEV protease (natural protein, Sulfolobus solfataricus P2)
chain: GAMAIRRLVLDVLKPIRGTSIVDLAERISKLDGVEGVNISVTDMDVETMGLMIIIEGTSLNFDDIRKMLEEEGCAIHSIDEVVSGNRIIEGKIKDDL
For B1, the “stoichiometry N” value in “mass spectrometry” was at most 6; in “SEC”, over 10 monomers per protomer.
